From IntAct's records for PubMed 22252131

Columns and labels:
hakai_mouse Cbll1 [1] = target: hakai_mouse Cbll1 (UniProt Q9JIY2)
hakai_mouse Cbll1 [2] = target: hakai_mouse Cbll1 (UniProt Q9JIY2); remark: listed apart in the source
hakai_mouse Cbll1 [3] = target: hakai_mouse Cbll1 (UniProt Q9JIY2); remark: listed apart in the source
hakai_mouse Cbll1 [4] = target: hakai_mouse Cbll1 (UniProt Q9JIY2); remark: listed apart in the source

Sequence of hakai_mouse Cbll1 (Q9JIY2 whole entry): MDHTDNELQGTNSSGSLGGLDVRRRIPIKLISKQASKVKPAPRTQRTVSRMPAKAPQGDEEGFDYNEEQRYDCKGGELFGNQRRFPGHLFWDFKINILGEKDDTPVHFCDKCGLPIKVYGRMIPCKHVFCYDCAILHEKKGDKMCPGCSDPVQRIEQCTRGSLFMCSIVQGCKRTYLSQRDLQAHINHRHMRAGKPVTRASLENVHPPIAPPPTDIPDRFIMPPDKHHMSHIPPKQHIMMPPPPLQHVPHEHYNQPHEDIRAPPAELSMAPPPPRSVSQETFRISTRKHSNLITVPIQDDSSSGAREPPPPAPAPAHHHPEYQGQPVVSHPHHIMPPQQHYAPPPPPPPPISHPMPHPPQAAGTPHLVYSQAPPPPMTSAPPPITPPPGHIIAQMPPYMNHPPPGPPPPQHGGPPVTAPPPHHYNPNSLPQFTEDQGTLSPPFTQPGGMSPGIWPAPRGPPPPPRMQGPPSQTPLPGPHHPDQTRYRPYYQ
Sequence of Src substrate cortactin (Mus musculus), Q60598 D480A (Q60598 whole entry D480A): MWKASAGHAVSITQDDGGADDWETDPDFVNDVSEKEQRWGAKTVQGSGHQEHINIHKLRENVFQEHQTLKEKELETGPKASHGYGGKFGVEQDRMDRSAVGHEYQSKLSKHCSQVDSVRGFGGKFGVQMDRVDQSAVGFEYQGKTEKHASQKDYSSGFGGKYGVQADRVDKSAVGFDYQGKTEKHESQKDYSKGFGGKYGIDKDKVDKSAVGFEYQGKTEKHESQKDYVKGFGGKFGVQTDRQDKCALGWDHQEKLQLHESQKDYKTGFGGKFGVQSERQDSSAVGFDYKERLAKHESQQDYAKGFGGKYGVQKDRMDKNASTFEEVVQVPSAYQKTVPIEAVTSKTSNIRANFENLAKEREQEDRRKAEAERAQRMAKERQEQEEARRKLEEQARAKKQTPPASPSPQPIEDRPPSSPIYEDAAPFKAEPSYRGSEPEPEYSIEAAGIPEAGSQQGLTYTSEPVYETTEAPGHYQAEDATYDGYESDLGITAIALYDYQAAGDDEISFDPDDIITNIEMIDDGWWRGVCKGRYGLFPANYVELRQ
Sequence of Src substrate cortactin (Mus musculus), Q60598 E478A (Q60598 whole entry E478A): as the sequence (Q60598 whole entry D480A) above, with E478A, A480D counted along it
Sequence of Src substrate cortactin (Mus musculus), Q60598 Y482F (Q60598 whole entry Y482F): as the sequence (Q60598 whole entry D480A) above, with A480D, Y482F counted along it

Substance: Src substrate cortactin (Mus musculus), Q60598 D480A
- effect of a mutation on the interaction (hakai_mouse Cbll1 [1]): decreasing interaction

Substance: Src substrate cortactin (Mus musculus), Q60598 E478A
- effect of a mutation on the interaction (hakai_mouse Cbll1 [2]): decreasing interaction

Substance: Src substrate cortactin (Mus musculus), Q60598 E486A
- effect of a mutation on the interaction (hakai_mouse Cbll1 [3]): disrupting interaction

Substance: Src substrate cortactin (Mus musculus), Q60598 Y482F
- effect of a mutation on the interaction (hakai_mouse Cbll1 [4]): disrupting interaction
